Measurements published in PMC4595793, “Beauveria bassiana Lipase A expressed in Komagataella (Pichia) pastoris with potential for biodiesel catalysis” (Frontiers in Microbiology, 2015).

Substrate: CCCC(=O)Oc1ccc([N+](=O)[O-])cc1
Experiment: spectrophotometric p-nitrophenol release
Format: biochemical, Beauveria bassiana
Details: 25 mM phosphate buffer pH 6.0, 50°C, 2 min, free enzyme, 0.05% Triton X-100 in the general assay, Hill coefficient n printed 1.46
Excerpt: spectrophotometric p-nitrophenol release on BbLA (Beauveria bassiana lipase A)

B1: BbLA (Beauveria bassiana lipase A) (Beauveria bassiana ARSEF 2860) (protein)
chain: LSADIDGAPLIHLDYATYRGSRVAGAGVDQFLGMRFAKPPLGDLRFRAPEEPFHEDQVQDATKLGALCVGTVDGSGVSPNDVFGEDCLFANLFKPANATTASKLPVWVFIQGGGYAHNSNGNYNGTQIVQQSGGNVVFVSFNYRVGVLGFLASEEVRKDGALNAGLLDQRLFLKWVQKYIGQFGGDPNHVVIHGDSAGGGSVSHHLTAYGGNDKENLFVGGIPESPFWPTQRKVDQMEFQYTRLLRDTKCDSLDCLRKLDVGALGNASQPSPFPEAHTEDPAPLWYWLPVIDGDLVQDNMYKQFLTGRFKRVPLLVGADTDEGTLFAVNASTETEVSSFLRANYPRLQEWQLDIVSTIYPKMKPLPKHAAYFPSAAAVYGDSTFVCAGNTMSDAISAFVGPDKLWNYRYNVADPEQVAEGFGVPHVSELGAIFGPDNIRGHEAKSLRTTNAPIVPVTMAYFTSFVRFLDPNTSRQPGSPLWQNWGAFVGEQGQRMRLETNNTAMETVPFDLVTKCALWKLLAESMDV
notes: 19-residue signal peptide removed (precursor 546 aa, 1,641 bp); alpha-factor secretion signal, C-terminal 6His (554 aa printed; b43 says N-terminal His); secreted by Komagataella pastoris GS115, N-glycosylated, about 78 kDa (60 kDa after EndoHf); Octyl-sepharose purified
Km: 0.5546 µM
